In publication PMC8577158, “Phylogenetic analysis and in-depth characterization of functionally and structurally diverse CE5 cutinases” (The Journal of Biological Chemistry, 2021):

Experiments:
FsCut = target: T1, FsCut (Fusarium vanettenii, UniProt P00590); assay: pNP release at […] nm, nonlinear Michaelis-Menten fit; details: read-out: FsCut; 50 mM sodium phosphate pH 7, 40 °C
T1 construct: gene CUT1

[1] = test system: CCCCCCCCCCCC(=O)Oc1ccc([N+](=O)[O-])cc1; assay: purified protein; details: 50 mM sodium phosphate pH 7, 40 °C
[2] = test system: CCCCCCCC(=O)Oc1ccc([N+](=O)[O-])cc1; assay: purified protein; details: 50 mM sodium phosphate pH 7, 40 °C
[3] = test system: CCCC(=O)Oc1ccc([N+](=O)[O-])cc1; assay: purified protein; details: 50 mM sodium phosphate pH 7, 40 °C
[4] = test system: CCCCCCCCCCCCCCCC(=O)Oc1ccc([N+](=O)[O-])cc1; assay: purified protein; details: 50 mM sodium phosphate pH 7, 40 °C
purified protein [5] = substrate: CCCCCCCCCCCCCCCC(=O)Oc1ccc([N+](=O)[O-])cc1; assay: purified protein; type: biochemical, Coprinopsis cinerea; details: 50 mM sodium phosphate pH 7, 40 °C
purified protein [6] = substrate: CCCCCCCCCCCC(=O)Oc1ccc([N+](=O)[O-])cc1; assay: purified protein; type: biochemical, Coprinopsis cinerea; details: 50 mM sodium phosphate pH 7, 40 °C
purified protein [7] = substrate: CCCC(=O)Oc1ccc([N+](=O)[O-])cc1; assay: purified protein; type: biochemical, Coprinopsis cinerea; details: 50 mM sodium phosphate pH 7, 40 °C
purified protein [8] = substrate: CCCCCCCC(=O)Oc1ccc([N+](=O)[O-])cc1; assay: purified protein; type: biochemical, Coprinopsis cinerea; details: 50 mM sodium phosphate pH 7, 40 °C
purified protein [9] = substrate: CCCCCCCCCCCCCCCC(=O)Oc1ccc([N+](=O)[O-])cc1; assay: purified protein; type: biochemical, Cryptococcus sp. S-2; details: 50 mM sodium phosphate pH 7, 40 °C
purified protein [10] = substrate: CCCCCCCCCCCC(=O)Oc1ccc([N+](=O)[O-])cc1; assay: purified protein; type: biochemical, Cryptococcus sp. S-2; details: 50 mM sodium phosphate pH 7, 40 °C
purified protein [11] = substrate: CCCC(=O)Oc1ccc([N+](=O)[O-])cc1; assay: purified protein; type: biochemical, Cryptococcus sp. S-2; details: 50 mM sodium phosphate pH 7, 40 °C
purified protein [12] = substrate: CCCCCCCC(=O)Oc1ccc([N+](=O)[O-])cc1; assay: purified protein; type: biochemical, Cryptococcus sp. S-2; details: 50 mM sodium phosphate pH 7, 40 °C
purified protein [13] = substrate: CCCCCCCCCCCCCCCC(=O)Oc1ccc([N+](=O)[O-])cc1; assay: purified protein; type: biochemical, Thermothielavioides terrestris; details: 50 mM sodium phosphate pH 7, 40 °C
purified protein [14] = substrate: CCCCCCCCCCCC(=O)Oc1ccc([N+](=O)[O-])cc1; assay: purified protein; type: biochemical, Thermothielavioides terrestris; details: 50 mM sodium phosphate pH 7, 40 °C
purified protein [15] = substrate: CCCC(=O)Oc1ccc([N+](=O)[O-])cc1; assay: purified protein; type: biochemical, Thermothielavioides terrestris; details: 50 mM sodium phosphate pH 7, 40 °C
purified protein [16] = substrate: CCCCCCCC(=O)Oc1ccc([N+](=O)[O-])cc1; assay: purified protein; type: biochemical, Thermothielavioides terrestris; details: 50 mM sodium phosphate pH 7, 40 °C

T1 sequence (P00590 32-230): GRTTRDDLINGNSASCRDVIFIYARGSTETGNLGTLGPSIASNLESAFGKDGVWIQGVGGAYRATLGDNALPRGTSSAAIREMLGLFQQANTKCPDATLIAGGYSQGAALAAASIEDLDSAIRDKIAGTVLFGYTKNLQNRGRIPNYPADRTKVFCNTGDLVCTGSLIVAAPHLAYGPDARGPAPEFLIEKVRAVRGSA

Molecule: CCCC(=O)Oc1ccc([N+](=O)[O-])cc1 [pNP-C4]
- Km (FsCut): 1670 ± 40 µM

Molecule: PbCut (Pyrenopeziza brassicae)
- Km [1]: 80 ± 10 µM
- kcat [1]: 0.2 s⁻¹
- kcat/Km [1]: 2500 ± 180 M⁻¹ s⁻¹
- Km [2]: 540 ± 70 µM
- kcat [2]: 1.43 ± 0.09 s⁻¹
- kcat/Km [2]: 2650 ± 190 M⁻¹ s⁻¹
- Km [3]: 1710 ± 170 µM
- kcat [3]: 6.45 ± 0.52 s⁻¹
- kcat/Km [3]: 3790 ± 70 M⁻¹ s⁻¹
- Km [4]: 40 ± 10 µM
- kcat [4]: 0.08 s⁻¹
- kcat/Km [4]: 2070 ± 250 M⁻¹ s⁻¹

Molecule: FsCut (Fusarium vanettenii)
- Km [1]: 50 ± 10 µM
- kcat [1]: 1.22 ± 0.03 s⁻¹
- kcat/Km [1]: 22800 ± 2090 M⁻¹ s⁻¹
- Km [2]: 720 ± 10 µM
- kcat [2]: 6.69 ± 0.24 s⁻¹
- kcat/Km [2]: 9250 ± 260 M⁻¹ s⁻¹
- Km [4]: 10 ± 0 µM
- kcat [4]: 0.15 s⁻¹
- kcat/Km [4]: 10600 ± 1060 M⁻¹ s⁻¹

B1: CcCut (Coprinopsis cinerea) (protein)
chain: QLFCRDVYVFFARGTGEVGTLGTVVGPGLSAAVKLAVRDSVEFEGIDYPALVSGYLAGGDRGGARTMANKVSQTASRCPNAKIFISGYSQGAQVTHLAARQLSAADQARVTGVVTFGDPYRDDALPGGLQSRRKTYCNVGDLICAGLPTLLAPHFTYGSDTPDAARWIAARV
- Km (purified protein [5]): 2900 ± 200 µM
- Km (purified protein [6]): 2760 ± 50 µM
- Km (purified protein [7]): 3560 ± 150 µM
- kcat (purified protein [7]): 8.96 ± 0.39 s⁻¹
- kcat/Km (purified protein [7]): 2520 M⁻¹ s⁻¹
- Km (purified protein [8]): 1670 ± 180 µM

B2: CspCut (Cryptococcus sp. S-2) (protein)
chain: ATSSACPQYVLINTRGTGEPQGQSAGFRTMNSQITAALSGGTIYNTVYTADFSQNSAAGTADIIRRINSGLAANPNVCYILQGYSQGAAATVVALQQLGTSGAAFNAVKGVFLIGNPDHKSGLTCNVDSNGGTTTRNVNGLSVAYQGSVPSGWVSKTLDVCAYGDGVCDTAHGFGINAQHLSYPSDQGVQTMGYKFAVNKLGGSA
- Km (purified protein [9]): 50 ± 0 µM
- kcat (purified protein [9]): 3.38 ± 0.12 s⁻¹
- kcat/Km (purified protein [9]): 70700 ± 6470 M⁻¹ s⁻¹
- Km (purified protein [10]): 50 ± 0 µM
- kcat (purified protein [10]): 3.49 ± 0.06 s⁻¹
- kcat/Km (purified protein [10]): 65970 ± 600 M⁻¹ s⁻¹
- Km (purified protein [11]): 5540 ± 500 µM
- kcat (purified protein [11]): 13.5 ± 0.25 s⁻¹
- kcat/Km (purified protein [11]): 2510 ± 270 M⁻¹ s⁻¹
- Km (purified protein [12]): 50 ± 0 µM
- kcat (purified protein [12]): 3.81 ± 0.27 s⁻¹
- kcat/Km (purified protein [12]): 83200 ± 4200 M⁻¹ s⁻¹

B3: TtCut (Thermothielavioides terrestris NRRL 8126) (protein)
chain: APTQPAGEAAVEARQLFSDTANDLENGVSSNCPKVIFICARGSTETGNLGSSVCPEVANGLKNYYPNQLWVQGVGGAYTADLASNALPGGTSTAAMQEAANMFNLAQQKCPNASVAAGGYSQGTAVVAGGIQSLSAAAKDQIKGVVLFGYTQAQQNHDTIPNFPVDKTMIFCAQGDLVCNGTLIVTAAHFSYITNGDASTKGPAWLHEKIGDA
- Km (purified protein [13]): 500 ± 90 µM
- Km (purified protein [14]): 210 ± 0 µM
- Km (purified protein [15]): 7080 ± 90 µM
- Km (purified protein [16]): 390 ± 10 µM
- kcat (purified protein [16]): 2.3 ± 0.06 s⁻¹
- kcat/Km (purified protein [16]): 5810 ± 50 M⁻¹ s⁻¹
